Measurements: paper PMC5483954, “Different specificities of two aldehyde dehydrogenases from Saccharomyces cerevisiae var. boulardii” (Bioscience Reports, 2017)
Values belong to the molecule of their own block, whether it stands above or below them.

Experiments:
[1] = target: Saccharomyces cerevisiae var. boulardii mitochondrial aldehyde dehydrogenase Ald4p (Saccharomyces cerevisiae var. boulardii (NCYC 3264)) (UniProt P46367); assay: SEC; Sephacryl S-300, buffer G (50 mM Tris/HCl, 17 mM Tris-base, 150 mM NaCl, pH 7.4), 1 ml/min; 200 ul of 60 uM protein by the methods (legend: Ald4p ~20 uM, Ald6p ~60 uM); mass from calibration with standard proteins
[2] = target: the molecule itself; assay: cross-linking; BS3 (50-800 uM) with 15 uM protein in 100 mM sodium phosphate pH 7.4, 30 C, 35 min; products on SDS/PAGE (10% gel)
[3] = target: the molecule itself; assay: SDS/PAGE of the untreated purified protein (SDS- and heat-resistant oligomers); purified protein without cross-linker on SDS/PAGE (10% gel); band not reduced by additional DTT (2 mM)
[4] = target: the molecule itself; assay: SEC; Sephacryl S-300, buffer G (50 mM Tris/HCl, 17 mM Tris-base, 150 mM NaCl, pH 7.4), 1 ml/min; 200 ul of 60 uM protein by the methods (legend: Ald4p ~20 uM, Ald6p ~60 uM); mass from calibration with standard proteins

stoichiometry N [1]: 3
Molecule: Saccharomyces cerevisiae var. boulardii mitochondrial aldehyde dehydrogenase Ald4p (from UniProt P46367 25-519) (enzyme)

B1: Saccharomyces cerevisiae var. boulardii cytosolic aldehyde dehydrogenase Ald6p (wild-type) (enzyme, UniProt P54115 1-500, looked up)
chain: MTKLHFDTAEPVKITLPNGLTYEQPTGLFINNKFMKAQDGKTYPVEDPSTENTVCEVSSATTEDVEYAIECADRAFHDTEWATQDPRERGRLLSKLADELESQIDLVSSIEALDNGKTLALARGDVTIAINCLRDAAAYADKVNGRTINTGDGYMNFTTLEPVGVCGQIIPWNFPIMMLAWKIAPALAMGNVCILKPAAVTPLNALYFASLCKKVGIPAGVVNIVPGPGRTVGAALTNDPRIRKLAFTGSTEVGKSVAVDSSESNLKKITLELGGKSAHLVFDDANIKKTLPNLVNGIFKNAGQICSSGSRIYVQEGIYDELLAAFKAYLETEIKVGNPFDKANFQGAITNRQQFDTIMNYIDIGKKEGAKILTGGEKVGDKGYFIRPTVFYDVNEDMRIVKEEIFGPVVTVAKFKTLEEGVEMANSSEFGLGSGIETESLSTGLKVAKMLKAGTVWINTYNDFDSRVPFGGVKQSGYGREMGEEVYHAYTEVKAVRIKL
notes: Ald6p, cytosolic aldehyde dehydrogenase of S. cerevisiae var. boulardii NCYC 3264; differs from the S. cerevisiae S288c protein by valine for isoleucine at position 163; printed mass 54.4 kDa; Removal of the tag is not mentioned; also called cytosolic Ald6p; wild-type Ald6p; source: E. coli Rosetta (DE3), purified (cobalt agarose, dialysis)
stoichiometry N [2]: 2 | stoichiometry N [3]: ~4 | stoichiometry N [4]: 4
